Experimental data reported in article PMC2114693.

Target: human erythrocyte adducin (human) (UniProt P35611)
Experiment: co-sedimentation

human erythrocyte adducin (human), sequence (P35611 whole entry, chain 1 of 2): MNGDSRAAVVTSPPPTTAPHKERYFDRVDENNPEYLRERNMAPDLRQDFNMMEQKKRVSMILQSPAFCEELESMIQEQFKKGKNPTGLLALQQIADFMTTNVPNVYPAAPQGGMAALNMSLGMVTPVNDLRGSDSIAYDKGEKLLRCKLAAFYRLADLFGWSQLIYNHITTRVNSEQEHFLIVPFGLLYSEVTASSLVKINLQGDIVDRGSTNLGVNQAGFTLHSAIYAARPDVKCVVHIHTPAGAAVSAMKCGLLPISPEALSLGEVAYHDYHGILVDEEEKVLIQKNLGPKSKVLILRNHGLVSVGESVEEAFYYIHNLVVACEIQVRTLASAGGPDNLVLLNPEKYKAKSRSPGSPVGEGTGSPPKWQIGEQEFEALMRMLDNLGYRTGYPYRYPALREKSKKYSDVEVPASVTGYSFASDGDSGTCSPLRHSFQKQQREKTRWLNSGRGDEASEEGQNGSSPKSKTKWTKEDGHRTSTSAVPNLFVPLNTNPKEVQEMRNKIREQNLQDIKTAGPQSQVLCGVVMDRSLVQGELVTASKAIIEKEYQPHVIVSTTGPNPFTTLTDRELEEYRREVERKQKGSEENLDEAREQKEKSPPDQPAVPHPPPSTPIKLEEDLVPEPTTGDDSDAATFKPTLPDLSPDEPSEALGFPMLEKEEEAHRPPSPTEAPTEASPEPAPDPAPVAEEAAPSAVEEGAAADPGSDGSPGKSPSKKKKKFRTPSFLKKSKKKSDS
human erythrocyte adducin (human), sequence (P35612 whole entry, chain 2 of 2, further chain): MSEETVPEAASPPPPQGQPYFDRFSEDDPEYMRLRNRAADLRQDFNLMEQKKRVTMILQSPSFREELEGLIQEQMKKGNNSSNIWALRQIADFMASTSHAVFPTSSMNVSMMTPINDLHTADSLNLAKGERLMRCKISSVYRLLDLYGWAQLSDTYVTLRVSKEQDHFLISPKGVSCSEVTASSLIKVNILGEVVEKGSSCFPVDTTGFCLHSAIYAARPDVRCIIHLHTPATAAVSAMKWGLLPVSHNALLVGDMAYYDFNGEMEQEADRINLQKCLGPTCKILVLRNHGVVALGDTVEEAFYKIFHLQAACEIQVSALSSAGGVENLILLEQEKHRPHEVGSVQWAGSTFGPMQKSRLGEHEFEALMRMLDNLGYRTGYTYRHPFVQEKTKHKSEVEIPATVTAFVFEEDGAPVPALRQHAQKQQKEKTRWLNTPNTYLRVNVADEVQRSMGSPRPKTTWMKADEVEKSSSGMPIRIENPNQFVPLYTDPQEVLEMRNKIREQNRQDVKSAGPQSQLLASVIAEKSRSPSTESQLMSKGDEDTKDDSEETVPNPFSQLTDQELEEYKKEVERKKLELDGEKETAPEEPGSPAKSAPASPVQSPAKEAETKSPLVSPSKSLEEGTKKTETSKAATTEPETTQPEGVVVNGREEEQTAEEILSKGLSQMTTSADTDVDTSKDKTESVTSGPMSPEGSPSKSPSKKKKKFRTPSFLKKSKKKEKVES

IC50: 4 µM
Substance: bovine brain calmodulin (from UniProt P62157 1-149) (natural protein)
